Source: patent US20240279309A1 (Molecular Partners, published 2024)

What was measured:
[1] = biological target: T1, CD40 receptor on cells (HEK293 reporter cells expressing CD40; primary human B cells) (human, UniProt P25942 21-277); assay: cell-based or functional assay
[2] = biological target: T1, CD40 receptor on cells (HEK293 reporter …); assay: cell-based or functional assay; remark: listed apart in the source
[3] = biological target: T1, CD40 receptor on cells (HEK293 reporter …); assay: cell-based or functional assay; remark: listed apart in the source
[4] = biological target: T1, CD40 receptor on cells (HEK293 reporter …); assay: cell-based or functional assay; remark: listed apart in the source
[5] = biological target: T2, biotinylated human CD40 (recombinant human CD40 target) (human, UniProt P25942 21-194, biotinylated (site not stated)); assay: SPR (ProteOn), biotinylated human CD40 on NLC chip, ankyrin repeat protein injected, 1:1 Langmuir, PBST
T2 construct: The HTRF and SPR texts say only 'biotinylated human CD40'; the Materials list a bought Fc fusion of the extracellular domain of human CD40 (ACRO Biosystems) as the only recombinant CD40; also called hCD40; Recombinant Fc fusion protein of the extracellular domain of human CD40; not shown: IgG1 Fc domain
Description: Briefly, biotinylated human CD40 was diluted in PBST (PBS, pH 7.4 containing 0.005% Tween 20®) and coated on two lanes of a NLC chip (BioRad) to levels of respectively 400 and 700 resonance units (RU). The interaction of ankyrin repeat protein and hCD40 was then measured by injecting 200 μl running buffer (PBS, pH 7.4 containing 0.005% Tween 20®) containing serial dilutions of ankyrin repeat proteins covering a concentration range between 50 nM and 3 nM for multi-trace SPR measurements (on-rate measurement), followed by a running buffer flow for at least 10 minutes at a constant flow rate of 100 μl/min (off-rate measurement). The regeneration was performed using 30 μl of 10 mM Glycine-HCl pH 2. The signals (i.e. resonance unit (RU) values) of the interspots and a reference injection (i.e. injection of running buffer only) were subtracted from the RU traces obtained after injection of ankyrin repeat protein (double-referencing). Based on the SPR traces obtained from the on-rate and off-rate measurements, the on- and off-rate of the corresponding ankyrin repeat protein—CD40 interaction was determined using a 1:1 Langmuir kinetic model.
Dissociation constants (KD) were calculated from the estimated on- and off-rates using standard procedures known to the person skilled in the art. KD values of the binding interactions of selected ankyrin repeat proteins with human CD40 were determined to be in the nanomolar range. Table 2 provides the KD values of some selected ankyrin repeat proteins as examples.

T1 sequence (P25942 21-277): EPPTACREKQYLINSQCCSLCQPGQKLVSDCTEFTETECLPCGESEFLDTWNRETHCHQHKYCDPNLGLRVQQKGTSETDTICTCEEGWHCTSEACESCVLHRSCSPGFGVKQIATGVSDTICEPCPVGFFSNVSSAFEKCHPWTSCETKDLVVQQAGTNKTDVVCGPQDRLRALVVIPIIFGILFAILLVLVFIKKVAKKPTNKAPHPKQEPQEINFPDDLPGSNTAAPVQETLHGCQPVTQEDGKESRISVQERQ
T2 sequence (P25942 other isoform, or with tags, fused parts or gaps): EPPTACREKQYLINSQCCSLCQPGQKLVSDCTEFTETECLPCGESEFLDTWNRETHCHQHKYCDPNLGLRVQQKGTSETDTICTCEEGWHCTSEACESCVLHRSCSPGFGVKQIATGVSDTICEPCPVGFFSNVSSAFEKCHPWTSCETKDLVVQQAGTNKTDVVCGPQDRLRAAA

B1: SMA104 (SEQ ID NO: 102) (designed binder)
chain: MRGSHHHHHHGSDLGEKLLVAALYGQDDEVRELLKAGADVNAKDQWGLTPLHKAALQGHLEIVEVLLKAGADVNAKDERGHTPLHWAARFGHLEIVEVLLKAGADVNAQDQKGYTPADLAALWGHEDIAEVLQKAAGSPTPTPTTPTPTPTTPTPTPTGSDLGKKLLQAARAGQLDEVRELLKAGADVNAKDTWGFTPLHIAAESGHLEIVEVLLKAGADVNAKDVQGRTPLHIAAHSGHLEIVEVLLKAGADVNAKDFRGWTPLHLAAWSGHLEIVEILLKAGADVNAQDKSGKTPADLAARAGHQDIAEVLQKAAGSPTPTPTTPTPTPTTPTPTPTGSDLGKKLLQAARAGQLDEVRELLKAGADVNAKDTWGFTPLHIAAESGHLEIVEVLLKAGADVNAKDVQGRTPLHIAAHSGHLEIVEVLLKAGADVNAKDFRGWTPLHLAAWSGHLEIVEILLKAGADVNAQDKSGKTPADLAARAGHQDIAEVLQKAA
EC50 [nM], % CD86, human B cells with FAP-CHO, w/o HSA [1]: 0.23 nM | EC50 [nM], MFI CD86, human B cells with FAP-CHO, w/o HSA [1]: 0.74 nM | efficacy of CD86 upregulation on human B cells with FAP-CHO, fold against the monovalent F-C format (SMA014) [2]: 2 fold | potency of CD86 upregulation on human B cells with FAP-CHO, fold against the monovalent F-C format (SMA014) [2]: 20 fold | Efficacy [MFI at highest dose], MFI CD86, human B cells with FAP-CHO, w/o HSA [3]: 6270 MFI | Efficacy at highest dose, % CD86, human B cells with FAP-CHO, w/o HSA [3]: 86.8% | Efficacy [MFI at highest dose], MFI CD86, human B cells with WT-CHO (no FAP), w/o HSA [4]: 252 MFI | Efficacy at highest dose, % CD86, human B cells with WT-CHO (no FAP), w/o HSA [4]: 46%

B2: DARPin® protein #29 (SEQ ID NO: 29) (designed binder)
chain: MRGSHHHHHHGSDLGKKLLQAARAGQLDEVRELLKAGADVNAKDTWGFTPLHIAAESGHLEIVEVLLKAGADVNAKDVQGRTPLHIAAHSGHLEIVEVLLKAGADVNAKDFRGWTPLHLAAWSGHLEIVEILLKAGADVNAQDKSGKTPADLAARAGHQDIAEVLQKAA
notes: His-tagged as expressed for HTRF and SPR
Kd [5]: 73 nM

B3: ankyrin repeat domain of SEQ ID NO: 22 (designed binder)
chain: MRGSHHHHHHGSDLGKKLLQAARAGQLDEVRELLKAGADVNAKDEFGQTPLHIAAKSGHLEIVEVLLKAGADVNAKDVYGRTPLHLAAQYGHLEIVEVLLKAGADVNAKDTQGVTPLHVAAFKGHLEIVEVLLKAGADVNAQDKSGKTPADLAARAGHQDIAEVLQKAA
notes: Expressed in E. coli from a pQE30 derivative that provides an N-terminal His-tag; purified by its His-tag for SPR
Kd [5]: 12 nM

B4: ankyrin repeat domain of SEQ ID NO: 31 (designed binder)
chain: MRGSHHHHHHGSDLGKKLLWAAAAGQLDEVRELLKAGADVNAKDHVGYTPLHIAALAGHLEIVEVLLKAGEDVNAKDHKGRTPLHVAAAVGHLEIVEVLLKAGADVNAKDQQGVTPLHIAAITGHLEIVEVLLKAGADVNAQDKSGKTPADLAARAGHQDIAEVLQKAA
notes: as for B3
Kd [5]: 73.5 nM
